Assay results from US5456909A, “Glycoform fractions of recombinant soluble complement receptor 1 (sCR1) having extended half-lives in vivo” (T Cell Sciences, Inc., priority 1992, dated 1995).
“And” between values parts separate entries of the source, which are not always exact repeats. Equal values may be shown once.

Assays:
[1] = Pharmacokinetic studies 1, 4, 5, 7, 9: iv clearance of 125I-labelled TP10HD preparations in rats; assay type: in vivo, Sprague-Dawley rats
Method: In Studies 1, 2, 4, 5, 7 and 9, Iodination was carried out by the chloramine-T procedure. Sodium phosphate buffer, 0.5M, pH 7.6, 50 μl, was added to 1 mCi of Na-^125 I (New England Nuclear, Boston, Mass.) as supplied. The sample of TP10HD, typically 100 μg in 100 μl (Study 5=69 μg; Study 7=34 μg; Study 9=91 μg), was added followed by 50 μl of a 15 mg/ml solution of freshly prepared chloramine-T. The reaction mixture was vigorously shaken for 60 seconds. Sodium metabisulfite (50 μl, 15 mg/ml) and sodium iodide (100 μl, 10 mg/ml) were successively pipetted into the reaction vial. The reaction mixture was passed onto a PD10 column (Pharmacia Fine Chemicals, Piscataway, N.J.), pre-equilibrated with phosphate buffered saline, pH 7.2-7.4, containing 0.1% bovine serum albumin (Sigma Chemical Company, St. Louis, Mo.). Ten 0.5 ml fractions were collected and 2 μl aliquots were counted directly and after combining with 100 μl of a 0.1% bovine serum albumin solution and 1 ml of 20% trichloroacetic acid. After incubation at 0° C. for 1 hour, the acid-precipitable protein associated radioactivity was collected by centrifugation for 10 minutes at 1000×g and quantitated by scintillation counting. Fractions containing >90% of the total radioactivity in the acid precipitate were pooled for further use.
Study 1: Radioiodinated TP10HD-CX was mixed with purified unlabeled TP10HD-CX to yield a dosing solution suitable for administering a 1 mg/kg total TP10HD dose containing 16-25×10^6 cpm of radiolabeled TP10HD-CX.
Study 4: Radioiodinated TP10HD-CC was mixed with purified unlabeled TP10HD-CC to yield a dosing solution suitable for administering a 1 mg/kg or a 3 mg/kg total TP10HD dose containing ~20×10^6 cpm.
Study 5: Radioiodinated TP10HD-CCW was mixed with purified unlabeled TP10HD-CCW to yield a dosing solution suitable for administering a 1 mg/kg total TP10HD dose containing ~20×10^6 cpm.
Study 7: Radiolabeled TP10HD-CCS was mixed with purified unlabeled TP10HD-CCS to yield a dosing solution suitable for administering a 1 mg/kg total TP10HD dose containing ~20×10^6 cpm.
Study 9: Radioiodinated TP10HD-CXD was mixed with purified unlabeled TP10HD-CXD to yield a dosing solution suitable for administering a 1 mg/kg total TP10HD dose containing ~20~10^6 cpm.
In Studies 1, 4, 5, 7 and 9, test material was injected intravenously (iv) into four Sprague-Dawley rats (2 male, 2 female). Blood samples were obtained from the retroorbital plexus at 1, 3, 5, 10, 20, 30, 45, and 60 minutes post injection, and the radioactivity determined. Additional post infusion blood samples were taken at 2, 3, and 4 hours postinjection (STUDY 4) and at 120 minutes (STUDY 5). The plasma fraction of the remaining blood sample was retained for further analysis.
Plasma samples were analyzed for residual test material by measuring:
(1) total residual radioactivity;
(2) percentage of radiolabeled material precipitated with TCA;
(3) residual acid precipitable radioactivity in the presence of SDS; and
(4) material immunologically identifiable in an enzyme immunoassay as TP10HD.
Radioisotope data was quantitated as total cpm/ml blood or plasma and as the percentage of a theoretical time zero value. Pharmacokinetic half-life was calculated from the radiometric data.
In Study 9, removal of N-linked oligosaccharide chains was performed by n-glycanase digestion, performed according to manufacturer's instructions (Genzyme Corporation, Boston, Mass.). Typically, 58 μg TP10HD-CX was incubated with 10.5 units of n-glycanase for 18 hours, 37° C., in 0.2M sodium phosphate, pH 8.6 buffer.
Precipitation with trichloroacetic acid was performed as follows: Plasma (20 μl) was precipitated by sequential addition of 450μl of 0.13M Tris HCl, 4% SDS, 10% glycerol, pH 6.8 buffer, followed by 30 μl of fetal bovine serum and 500μl of 20% trichloroacetic acid. […]

[2] = Pharmacokinetic study 3: iv TP10HD-CC in pigs, residual functional activity by hemolysis inhibition with pig complement; assay type: in vivo; conditions: 1 mg/kg
Method: Study 3: TP10HD-CC was administered as supplied to a final dose of 1 mg/kg.
In Study 3, test material was injected iv through a jugular vein cannula into piglets ranging in weight from 4.5 to 6.1 kg. Blood samples were taken via a previously implanted jugular vein cannula into syringes containing lithium heparin at a final concentration of 15 units/ml. A preinfusion sample, 10 ml, was taken at zero time and postinfusion samples, 1.0 ml, were taken at 5, 10, 15, 30, 45, 60, 120, 180, 240, 300, 360 minutes and 24 hours. Anticoagulated blood samples were centrifuged at ~3000 rpm, 4° C., 5 minutes and the platelet-poor plasma was aliquotted and stored at or below -70° C.
Plasma samples were analyzed for residual test material by an in vitro functional assay, as above, using pig rather than human complement. Pharmacokinetic half-life was calculated from the titer of the residual functional activity.
Prior to infusion with TP10HD-CC, plasma was collected from each pig to be used as a sample diluent and complement source for the hemolysis assay. Test samples were diluted a minimum of 1:50 with 0.1M Hepes, 0.15M NaCl, pH 7.4 buffer. For greater dilution, test samples were diluted with preinfusion plasma already diluted 1:50 in the same buffer, thereby maintaining the final plasma concentration at 1:50. At this dilution, the degree of hemolysis was equivalent to hemolysis with human complement, as described above. Other manipulations were as described above. Standard curves with known quantities of TP10HD can be used to calibrate the assay so that results can be expressed as μg/ml TP10HD remaining in the plasma versus time.
The pharmacokinetic parameters for clearance rate, compartment volume, rate constants and half-life were obtained by fitting the data for each pig to two and three compartment models. […] These phases represent 69% and 31% respectively of the given dose such that approximately one-third of the dose was cleared slowly.

[3] = system: complement-mediated lysis of antibody coated SRBC; assay: Inhibition of complement-mediated hemolysis of antibody-sensitized SRBC in vitro; assay type: cell-based, human; conditions: for IH50 (concentration giving 50% inhibition of hemolysis): SRBC, human serum as complement source; for antihemolytic potency comparison, in words: in vitro
Method: SRBC presensitized with rabbit anti-SRBC antibody (Diamedix, Miami, Fla.) were mixed in a V-bottom microtiter wells (Costar, Cambridge, Mass.) with an appropriate dilution of the test plasma and an aliquot of diluted human serum as a complement source. After incubation, 37° C., 1 hour, the unlysed red cells were pelleted by centrifugation, the supernatant transferred to corresponding flat bottom microwells (Costar, Cambridge, Mass.), and absorbance at 415 nm measured. Inhibition of complement-mediated lysis of the antibody coated SRBC was measured as a reduction in the absorbance in the presence of test sample.
A range of dilutions of TP10HD or TP10HD glycoform spanning 7.8 to 1000 ng/ml was examined for each sample.

[4] = Isoelectric point by chromatofocusing (Mono P, pH 7.1 to 4.0); assay type: physicochemical
Method: Chromatofocusing is a method of separating isoforms of proteins according to their isoelectric point, pI, using an ion exchange column and a pH gradient created with amphoteric buffers of different pH. In this study, analysis of the TP10HD preparations was performed using a pH gradient of 7.1 to 4.0. The chromatographic resin was Mono P, Hr5/5 (Pharmacia Fine Chemicals, Piscataway, N.J.); the starting buffer was 0.025M Bis/Tris titrated to pH 7.1 with saturated iminodiacetic acid; the eluant was polybuffer 7-4 (Pharmacia Fine Chemicals, Piscataway, N.J.) diluted 1:10 (v/v) with water and adjusted to pH 4.0 with HCl; cleaning buffer was 2M NaCl in water. The experimental conditions were chosen to yield a linear pH gradient of 7.1 to 4.0 units.

[5] = Pharmacokinetic studies 6 and 8: iv TP10HD-CCW and TP10HD-CCS in rabbits, radiometric and immunoassay; assay type: in vivo, Dutch rabbits; conditions: 1 mg/kg
Method: In Studies 6 and 8, iodination was performed by the iodogen method (Fraker et al., 1978, Biochem Biophys Res Commun 80:849); the average degree of ^125 I substitution was 0.56 atoms/molecule of protein resulting in a specific activity of 22.7 kBq/mg for STUDY 6, and the average degrees of ^125 I substitution was 0.76 atoms/molecule of protein resulting in a specific activity of 29.5 kBq/mg for STUDY 8.
Studies 6 and 8: As described in STUDY 2 except that the radioiodinated TP10HD-CCW was added to ~1% w/w.
In Studies 6 and 8, test material was injected iv into a group of 5 Dutch rabbits (approximately 1 kg) at a dose of 1 mg/kg. Blood samples, 1 ml, were taken from an ear artery immediately predosing and at 5, 10, 20, 30, 60, 120 and 180 minutes, mixed with heparin, and radioactivity determined in an aliquot by scintillation counting after precipitation with trichloroacetic acid.
Plasma samples were analyzed for residual test material by an enzyme immunoassay (EIA) specific for TP10HD. Pharmacokinetic half-life was calculated from both the radiometric and immunoassay data.
Precipitation with trichloroacetic acid was performed as follows: Plasma (20 μl) was precipitated by sequential addition of 450μl of 0.13M Tris HCl, 4% SDS, 10% glycerol, pH 6.8 buffer, followed by 30 μl of fetal bovine serum and 500μl of 20% trichloroacetic acid. After each addition, the tubes were vigorously mixed and incubated for […] at 4° C.; the pellets of precipitable protein were collected by centrifugation at 1000×g for 10 minutes, the supernatants removed and discarded, and the residual radioactivity measured by scintillation counting.
A commercially available assay was utilized (Cellfree® CD35, T Cell Diagnostics, Inc. Cambridge, Mass.). In brief, polystyrene beads coated with polyclonal rabbit anti-TP10HD antibodies were simultaneously incubated with the diluted test sample and a horse radish peroxidase-conjugated polyclonal rabbit anti-TP10HD antibody. Following incubation, the beads were removed from the reaction mixture, washed of nonspecifically bound material, and subsequently incubated in the presence of an appropriate dilution of substrate. Color development was terminated by the addition of sulfuric acid and the absorbance (optical density) determined as a measure of TP10HD concentration.

| Substance | α phase half-life ([1]; 1 mg/kg) [h] | β phase half-life ([1]; 1 mg/kg) [h] | IH50 (concentration giving 50% inhibition of hemolysis) [3] | antihemolytic potency comparison, in words [3] | % dose cleared, α-phase ([5]; immunoassay data) [%] | % dose cleared, β-phase ([5]; immunoassay data) [%] | Serum half-life, α-phase ([5]; immunoassay data) [h] | Serum half-life, β-phase ([5]; immunoassay data) [h] | Total Clearance ([5]; immunoassay data) [mL/min/kg] | % dose cleared, β-phase ([5]; radiometric data) | Peak (t = O) concentration ([5]; radiometric data) [µg/mL] | Serum half-life, β-phase ([5]; radiometric data) | Total Clearance ([5]; radiometric data) | Volume of Distribution, α-phase ([5]; radiometric data) [L/kg] | Volume of Distribution, β-phase ([5]; radiometric data) | also measured |
| --- | --- | --- | --- | --- | --- | --- | --- | --- | --- | --- | --- | --- | --- | --- | --- | --- |
| TP10HD-CC: TP10HD produced by cells cultured in a fluidized bed perfusion bioreactor and purified by combination chromatography | 0.153 | 3.018 | about 50±3 ng/ml | no basis for concluding that TP10HD-CC, TP10HD-CCW and TP10HD-CCS differ in their potency |  |  |  |  |  |  |  |  |  |  |  | α phase half-life ([1]; 3 mg/kg): 0.163 h; β phase half-life ([1]; 3 mg/kg): 4.452 h; % of given dose represented by α-phase [2]: 69%; % of given dose represented by β-phase [2]: 31%; Peak (t = O) concentration [2]: 29.3 µg/mL; Total Clearance [2]: 0.24 mL/min/kg; Volume of Distribution, α-phase [2]: 0.036 L/kg; Volume of Distribution, β-phase [2]: 0.073 L/kg; plasma level 24 hours after dosing ([2]; 24 hours): not distinguishable from control levels; Serum half-life, α-phase ([2]; mean of 8 animals): 8.3 min; Serum half-life, β-phase ([2]; mean of 8 animals): 6 h and 6.05 h; mean half-life, β-phase ([2]; two-compartment model): 6 h; potency relative to the strongly cationic glycoform (fold lower) ([3]; from IH50 of TP10HD-CX and TP10HD-CC): approximately 2 fold; pI of dominant isoforms ([4]; chromatofocusing): 5.1 and 4.8; pI of minor isoforms ([4]; chromatofocusing, smaller quantities / minor component): 5.7; proportion of preparation with pI <4.9 ([4]; peak integration): approximately 40% |
| TP10HD-CCW: the weakly cationic form of TP10HD-CC isolated by preparative HPLC cation exchange chromatography | 0.2035 | 1.67 | 44 ng/mL | no basis for concluding that TP10HD-CC, TP10HD-CCW and TP10HD-CCS differ in their potency | 30 | 70 | 0.233 | 6.27 | 0.1 | 69.1 ± 1.9% and ~70% | 17.8 ± 0.3 | 3.6 h and 3.61 ± 0.313 h | 0.26 ± 0.02 mL/min/kg and 0.26 mL/min/kg | 0.0562 ± 0.001 | 22.6 ± 1.9 ml/kg and ~ 23 ml/kg |  |
| TP10HD-CCS: the strongly cationic form of TP10HD-CC isolated by preparative HPLC cation exchange chromatography | 0.111 | 2.22 | ~27 ng/mL | no basis for concluding that TP10HD-CC, TP10HD-CCW and TP10HD-CCS differ in their potency | 73 | 27 | 0.167 | 1.27 | 1.24 | 25.5 ± 1.5% and ~25% | 14.6 ± 1.0 | 3.6 h and 3.608 ± 0.613 h | 0.85 ± 0.12 mL/min/kg and 0.85 mL/min/kg | 0.0698 ± 0.0048 | 162.0 ± 13.9 ml/kg and ~ 162 ml/kg |  |
